One molecule from publication PMC11482926 (bioRxiv, 2024) can be followed below.

The target of one experiment is ubiquitin (UniProt P0CG48 1-76). Put plainly: NMR titration.
For the next experiment, the target named is NEDD8 (UniProt Q15843 1-76). Put plainly: NMR titration.

Broadly, the Kd is the concentration at which binding is half-saturated. High values mean a looser complex, low ones a tighter complex. With AAEDQVPCEKCGSLVPVWDMPEHMDYHFALELQKS (domain or fragment) [UBZ domain of Pol η (amino acids 628–662)], the Kd with ubiquitin is 159 ± 9.5 µM; with NEDD8, 671 ± 153 µM.
